In patent publication US20220235140A1 (HEDGEHOG, published 2022):

Biological target: T1, human endothelin receptor type A (human, UniProt P25101 21-427, limits assumed)
T1 construct: Immobilized on plates coated with human Galpha-i3 such that its extracellular regions were selectively exposed; also called ETA
T1 sequence (looked up): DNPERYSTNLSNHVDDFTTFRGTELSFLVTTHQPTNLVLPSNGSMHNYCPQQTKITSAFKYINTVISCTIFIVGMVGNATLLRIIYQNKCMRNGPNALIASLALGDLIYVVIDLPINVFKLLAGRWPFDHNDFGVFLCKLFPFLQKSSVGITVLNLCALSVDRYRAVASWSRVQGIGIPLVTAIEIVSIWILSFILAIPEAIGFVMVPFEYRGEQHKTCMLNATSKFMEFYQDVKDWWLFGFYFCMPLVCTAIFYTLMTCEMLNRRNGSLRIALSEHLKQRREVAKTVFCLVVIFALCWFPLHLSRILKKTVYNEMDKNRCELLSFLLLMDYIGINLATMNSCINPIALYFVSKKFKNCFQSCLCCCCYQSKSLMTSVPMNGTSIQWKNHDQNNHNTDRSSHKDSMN
Test: ELISA, ETA immobilized via human Galpha-i3, antibody titrated

B1: AG8 (antibody, V domains shown)
VH: EVQLVESGAEVRKPGASVKVSCKASGYTFTSSDINWIRQATGQGLEWMGYMNPKNGNTDYAQKFQGRISMTRDSSISTAYMELSSLRSEDTAVYYCAKDRYGSGTYGFGMDVWGPGTLVT
VL: DIVMTQSPSAMSASVGDRVSITCRASQGINNYLAWFQQKPGKVPKRLMDVGSILQSGIPSRFRGRGSGTQFTLTISSLQAEDSGTYFCLQHNTYPLTFGPGTKVEIKR
A Kd of 26.1 nM was found for B1 in this work.
